The values that follow come from patent publication US20180355059A1 (PHARMAEXPLORER, published 2018).

In experiment [1] the target is T1, recombinant human PCSK9 protein, His-tagged (Immunogen A, hPCSK9-His) (human, UniProt Q8NBP7 31-692, limits assumed, biotin-labelled in the ELISA and blocking assays (Biotin labeling kit)).
T1 construct: also called human PCSK9-His; recombinant hPCSK9-His; not shown: His tag
As to the kind of experiment: ELISA, biotin-hPCSK9-His on streptavidin plate; antibody 0.0067 nM. In general terms: In an ELISA, binding on a coated surface is turned into a signal by an enzyme label.

Experiment [2] has as its target T1, recombinant human PCSK9 protein, …. As to the kind of experiment: ELISA, biotin-hPCSK9-His on streptavidin plate; antibody 0.00067 nM.
Procedure: (§1) The next day, the plates were washed twice with wash buffer [0.01% (v/v) Tween 20], then blocked with blocking buffer [0.01% (v/v) 0.1% BSA (w/w) Tween 20] at room temperature for 2 hours. […] Unbound PCSK9 proteins were removed by washing the plate three times with wash buffer [0.01% (v/v) Tween 20]. […] The plates were washed twice with wash buffer [0.01% (v/v) Tween 20], and 200 uL HRP-conjugated secondary antibody (Sigma) was added to each well and incubated for 2 hours at 37° C. After the plates were washed three times with wash buffer, 100 ul TMB substrate were added to each well and incubated for 30 minutes at room temperature. 100 ul stop solution (0.1N HCl) were added to each well to stop the reaction.
Experiment [3] has the same target. As to the kind of experiment: blocking ELISA, biotin-hPCSK9-His on coated LDLR ECD-His; antibody 200 nM.
Procedure: (§2) Purified LDLR^ECD-His was diluted with PBS to a final concentration of 1.0 ug/ml, and 100 uL of diluted LDLR^ECD-His were added to each well of 96-well plate that was then sealed with plastic film and incubated at 4° C. overnight. The plate was washed twice with wash buffer [PBS+0.01% (v/v) Tween 20] and incubated with blocking buffer [PBS+0.01% (v/v) BSA+1% Tween20 (w/w)] at room temperature for 2 hours. […] The plate was washed three times with wash buffer [0.01% (v/v) Tween 20]. 100 uL HRP-conjugated streptavidin (Sigma) were then added to each well and incubated at 37° C. for 1 hour. The plate was then washed three times with wash buffer, and 100 uL TMB substrate were added to each well. After 15 minutes of incubation at room temperature, the reaction was stopped by adding 50 uL stop solution (0.1N HCl).
For experiment [4], the target named is T2, recombinant cyno monkey PCSK9 protein (cyno monkey, UniProt A8T666 31-692 (rhesus entry), limits assumed, biotin-labelled in the ELISA (Biotin labeling kit)).
T2 construct: also called cyno PCSK9; Cyno Monkey PCSK9-His
T2 sequence (A8T666 31-692 limits assumed): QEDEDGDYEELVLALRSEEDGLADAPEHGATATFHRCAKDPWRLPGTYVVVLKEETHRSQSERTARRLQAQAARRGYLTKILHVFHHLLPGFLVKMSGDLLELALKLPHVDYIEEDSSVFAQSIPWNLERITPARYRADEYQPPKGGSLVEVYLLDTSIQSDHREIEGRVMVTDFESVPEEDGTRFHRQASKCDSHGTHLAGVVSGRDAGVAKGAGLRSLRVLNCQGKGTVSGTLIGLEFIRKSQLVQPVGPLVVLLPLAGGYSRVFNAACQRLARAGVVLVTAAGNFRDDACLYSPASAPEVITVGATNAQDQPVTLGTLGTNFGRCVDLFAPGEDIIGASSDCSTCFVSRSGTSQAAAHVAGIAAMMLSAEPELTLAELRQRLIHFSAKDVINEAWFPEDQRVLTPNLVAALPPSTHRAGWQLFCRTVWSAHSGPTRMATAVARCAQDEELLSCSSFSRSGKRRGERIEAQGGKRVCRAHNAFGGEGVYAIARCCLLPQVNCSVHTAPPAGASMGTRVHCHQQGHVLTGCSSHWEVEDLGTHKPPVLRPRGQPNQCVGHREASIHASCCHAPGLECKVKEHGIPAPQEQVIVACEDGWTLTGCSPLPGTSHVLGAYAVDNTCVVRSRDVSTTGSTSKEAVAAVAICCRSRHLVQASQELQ
As to the kind of experiment: ELISA, biotin-cyno PCSK9 on streptavidin plate; antibody 0.0067 nM.
Procedure: as §1

Experiment [5] deals with T2, recombinant cyno monkey PCSK9 protein. As to the kind of experiment: ELISA, biotin-cyno PCSK9 on streptavidin plate; antibody 0 nM (blank).
Procedure: as §1
Experiment [6] shares this target. As to the kind of experiment: ELISA, biotin-cyno PCSK9 on streptavidin plate; antibody 66.67 nM.
Procedure: as §1
Experiment [7] has the same target. As to the kind of experiment: ELISA, biotin-cyno PCSK9 on streptavidin plate; antibody 0.67 nM.
Procedure: as §1
Experiment [8] concerns the target T1, recombinant human PCSK9 protein, …. As to the kind of experiment: blocking ELISA, biotin-hPCSK9-His on coated LDLR ECD-His; antibody 1.6 nM.
Procedure: as §2
The target is the same in experiment [9]. As to the kind of experiment: ELISA, biotin-hPCSK9-His on streptavidin plate; antibody 0.067 nM.
Procedure: as §1
Experiment [10] shares this target. As to the kind of experiment: ELISA, biotin-hPCSK9-His on streptavidin plate; antibody 0 nM (blank).
Procedure: as §1
Experiment [11] shares this target. As to the kind of experiment: blocking ELISA, biotin-hPCSK9-His on coated LDLR ECD-His; antibody 40 nM.
Procedure: as §2
Experiment [12] has the same target. As to the kind of experiment: blocking ELISA, biotin-hPCSK9-His on coated LDLR ECD-His; antibody 0.32 nM.
Procedure: as §2
Experiment [13] has the same target. As to the kind of experiment: blocking ELISA, biotin-hPCSK9-His on coated LDLR ECD-His; antibody 8 nM.
Procedure: as §2
The target in experiment [14] is T2, recombinant cyno monkey PCSK9 protein. As to the kind of experiment: ELISA, biotin-cyno PCSK9 on streptavidin plate; antibody 0.067 nM.
Procedure: as §1
The target of experiment [15] is T1, recombinant human PCSK9 protein, …. As to the kind of experiment: ELISA, biotin-hPCSK9-His on streptavidin plate; antibody 6.67 nM.
Procedure: as §1
Experiment [16] has the same target. As to the kind of experiment: ELISA, biotin-hPCSK9-His on streptavidin plate; antibody 0.000067 nM.
Procedure: as §1
For experiment [17] the target is unchanged. As to the kind of experiment: blocking ELISA, biotin-hPCSK9-His on coated LDLR ECD-His; antibody 0.01 nM.
Procedure: as §2
Experiment [18] addresses T2, recombinant cyno monkey PCSK9 protein. As to the kind of experiment: ELISA, biotin-cyno PCSK9 on streptavidin plate; antibody 6.67 nM.
Procedure: as §1
Experiment [19] has the same target. As to the kind of experiment: ELISA, biotin-cyno PCSK9 on streptavidin plate; antibody 0.00067 nM.
Procedure: as §1
Experiment [20] concerns the target T1, recombinant human PCSK9 protein, …. As to the kind of experiment: ELISA, biotin-hPCSK9-His on streptavidin plate; antibody 66.67 nM.
Procedure: as §1
The target is the same in experiment [21]. As to the kind of experiment: blocking ELISA, biotin-hPCSK9-His on coated LDLR ECD-His; antibody 0.06 nM.
Procedure: as §2
The target is the same in experiment [22]. As to the kind of experiment: ELISA, biotin-hPCSK9-His on streptavidin plate; antibody 0.67 nM.
Procedure: as §1

B1: 96F8C6, chimeric anti-PCSK9 mAb purified from hybridoma (antibody, V domains shown)
VH: EVQLVESGGGLVQPGGSLRLSCAASGITFSSYWMSWVRQAPGKGLEWVANIKQDGSEKYYVDSVKGRFTISRDIAKNSLYLQMNSLRAEDTAVYYCARDRGTYYYGSGSYNYYYYGMDVWGQGTTVTVSS
VL: not shown
notes: From Harbour H2L2 mice: human variable regions, rat constant regions
As to B1, the OD450 nm in experiment [1] amounted to 0.3 OD450 nm; in experiment [2] it was 0.18 OD450 nm; in [4], 0.25 OD450 nm; in experiment [5], 0.25 OD450 nm; in experiment [6] it was 2.87 OD450 nm; in experiment [7], 2.26 OD450 nm. Moreover, the OD450 nm in [9] was found to be 1 OD450 nm; in experiment [10], 0.2 OD450 nm; in [14], 0.77 OD450 nm; in experiment [15] it was 2.89 OD450 nm; in experiment [16] it was 0.17 OD450 nm; in experiment [18] it was 2.58 OD450 nm. The OD450 nm came out at 0.23 OD450 nm in experiment [19], 2.86 OD450 nm in [20] and 2.73 OD450 nm in experiment [22]. Also, the “OD450 nm (PCSK9 bound to LDLR)” value in [3] turned out to be 0.63 OD450 nm; in experiment [8], 0.97 OD450 nm; in experiment [11] it was 0.45 OD450 nm; in [12], 1.16 OD450 nm; in [13] it was 0.53 OD450 nm; in experiment [17], 1.19 OD450 nm. Moreover, the “OD450 nm (PCSK9 bound to LDLR)” value in [21] stood at 1.25 OD450 nm.

B2: 103C11E8, chimeric anti-PCSK9 mAb purified from hybridoma (antibody, V domains shown)
VH: QVQLQESGPGLVKPSGTLSLTCAVSGGSISSSNWWSWVRQPPGKGLEWIGEIYHSGSTNYNPSLKSRVTISVDKSKNQFSLKLSSVTAADTAVYYCARGIAVAGTDVMDAWGQGASVTVSS
VL: EIVLTQSPATLSLSPGERATLSCRASQSVSSYLVWYQQKSGQAPRLLIYGTSNRATGIPARFSGSGSGTDFTLTISSLEPEDFALYYCQQRGNWMYTFGQGTKLEIK
notes: as for B1
Regarding B2, the OD450 nm in experiment [1] amounted to 0.21 OD450 nm; in [2] it was 0.15 OD450 nm; in experiment [9], 0.68 OD450 nm; in [10], 0.14 OD450 nm; in experiment [15], 2.71 OD450 nm; in [16] it was 0.11 OD450 nm. In addition, the OD450 nm in [20] was determined as 2.72 OD450 nm; in experiment [22] it was 2.41 OD450 nm. Moreover, the “OD450 nm (PCSK9 bound to LDLR)” value in [3] came to 0.54 OD450 nm; in experiment [11] it was 0.77 OD450 nm; in [12] it was 0.92 OD450 nm; in [13], 0.87 OD450 nm; in experiment [17], 0.97 OD450 nm; in experiment [21] it was 0.96 OD450 nm.
